From the supplement of paper PMC5998384

Legend:
[1] = system: HeLa Kyoto; assay: thermal stability score vs G1/S (z-score of summed log2 fold changes over temperatures); higher = more thermally stable than in G1/S
[2] = system: HeLa Kyoto; assay: solubility in G1/S (NP-40 vs SDS abundance) (log2 ratio); higher = more soluble; conditions: cell cycle stage: G1/S
[3] = system: HeLa Kyoto; assay: melting temperature (median over replicates), in situ; higher = more thermally stable
[4] = system: HeLa Kyoto; assay: solubility change mitosis vs G1/S (difference of NP-40 vs SDS log2 ratios) (log2 ratio difference); higher = more soluble in mitosis
[5] = cell cycle stage: early G1 (4.5 h after nocodazole release)
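Wherever melting temperature (median over replicates), in situ is given: HeLa Kyoto cells synchronized by double thymidine or nocodazole block, proteins quantified by TMT10plex mass spectrometry, three independent biological replicates.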
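Wherever solubility change mitosis vs G1/S (difference of NP-40 vs SDS log2 ratios) is given: synchronized HeLa Kyoto cells (double thymidine block for G1/S, nocodazole release for mitosis), protein amounts in NP-40 versus SDS lysates quantified by mass spectrometry, three biological replicates.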
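Wherever solubility in G1/S (NP-40 vs SDS abundance) is given: HeLa Kyoto cells arrested at G1/S by double thymidine block, proteins quantified by TMT10plex mass spectrometry in mild NP-40 versus SDS extracts, three biological replicates.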
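Wherever thermal stability score vs G1/S (z-score of summed log2 fold changes over temperatures) is given: synchronized HeLa Kyoto cells, proteins quantified by TMT10plex mass spectrometry, three biological replicates, mitosis taken 0.5 h after nocodazole release, G1/S directly after double thymidine block.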

Sequence	thermal stability score [1, 5]	thermal stability score ([1]; cell cycle stage: mitosis)	solubility in G1/S (log2) [2]	melting temperature ([3]; cell cycle stage: G1/S)	melting temperature ([3]; cell cycle stage: mitosis)	solubility change mitosis (log2) [4]
MPSASCDTLLDDIEDIVSQEDSKPQDRHFVRKDVVPKVRRRNTQKYLQEEENSPPSDSTIPGIQKIWIRTWGCSHNNSDGEYMAGQLAAYGYKITENASDADLWLLNSCTVKNPAEDHFRNSIKKAQEENKKIVLAGCVPQAQPRQDYLKGLSIIGVQQIDRVVEVVEETIKGHSVRLLGQKKDNGRRLGGARLDLPKIRKNPLIEIISINTGCLNACTYCKTKHARGNLASYPIDELVDRAKQSFQEGVCEIWLTSEDTGAYGRDIGTNLPTLLWKLVEVIPEGAMLRLGMTNPPYILEHLEEMAKILNHPRVYAFLHIPVQSASDSVLMEMKREYCVADFKRVVDFLKEKVPGITIATDIICGFPGETDQDFQETVKLVEEYKFPSLFINQFYPRPGTPAAKMEQVPAQVKKQRTKDLSRVFHSYSPYDHKIGERQQVLVTEESFDSKFYVAHNQFYEQVLVPKNPAFMGKMVEVDIYESGKHFMKGQPVSDAKVYTPSISKPLAKGEVSGLTKDFRNGLGNQLSSGSHTSAASQCDSASSRMVLPMPRLHQDCALRMSVGLALLGLLFAFFVKVYN [CDKAL1]	-2.9	-1	0.0175	51.2 °C	50.7 °C	-0.00551
MPSDLAKKKAAKKKEAAKARQRPRKGHEENGDVVTEPQVAEKNEANGRETTEVDLLTKELEDFEMKKAAARAVTGVLASHPNSTDVHIINLSLTFHGQELLSDTKLELNSGRRYGLIGLNGIGKSMLLSAIGKREVPIPEHIDIYHLTREMPPSDKTPLHCVMEVDTERAMLEKEAERLAHEDAECEKLMELYERLEELDADKAEMRASRILHGLGFTPAMQRKKLKDFSGGWRMRVALARALFIRPFMLLLDEPTNHLDLDACVWLEEELKTFKRILVLVSHSQDFLNGVCTNIIHMHNKKLKYYTGNYDQYVKTRLELEENQMKRFHWEQDQIAHMKNYIARFGHGSAKLARQAQSKEKTLQKMMASGLTERVVSDKTLSFYFPPCGKIPPPVIMVQNVSFKYTKDGPCIYNNLEFGIDLDTRVALVGPNGAGKSTLLKLLTGELLPTDGMIRKHSHVKIGRYHQHLQEQLDLDLSPLEYMMKCYPEIKEKEEMRKIIGRYGLTGKQQVSPIRNLSDGQKCRVCLAWLAWQNPHMLFLDEPTNHLDIETIDALADAINEFEGGMMLVSHDFRLIQQVAQEIWVCEKQTITKWPGDILAYKEHLKSKLVDEEPQLTKRTHNV [ABCF2]	1.11	0.19	-0.296	51.8 °C	51.2 °C	0.116
MPSLLVLTFSPCVLLGWALLAGGTGGGGVGGGGGGAGIGGGRQEREALPPQKIEVLVLLPQDDSYLFSLTRVRPAIEYALRSVEGNGTGRRLLPPGTRFQVAYEDSDCGNRALFSLVDRVAAARGAKPDLILGPVCEYAAAPVARLASHWDLPMLSAGALAAGFQHKDSEYSHLTRVAPAYAKMGEMMLALFRHHHWSRAALVYSDDKLERNCYFTLEGVHEVFQEEGLHTSIYSFDETKDLDLEDIVRNIQASERVVIMCASSDTIRSIMLVAHRHGMTSGDYAFFNIELFNSSSYGDGSWKRGDKHDFEAKQAYSSLQTVTLLRTVKPEFEKFSMEVKSSVEKQGLNMEDYVNMFVEGFHDAILLYVLALHEVLRAGYSKKDGGKIIQQTWNRTFEGIAGQVSIDANGDRYGDFSVIAMTDVEAGTQEVIGDYFGKEGRFEMRPNVKYPWGPLKLRIDENRIVEHTNSSPCKSSGGLEESAVTGIVVGALLGAGLLMAFYFFRKKYRITIERRTQQEESNLGKHRELREDSIRSHFSVA [NPR3]	-4.69	-4.35	0.0598	53.9 °C	54.4 °C	-0.0686
MPSRKFADGEVVRGRWPGSSLYYEVEILSHDSTSQLYTVKYKDGTELELKENDIKPLTSFRQRKGGSTSSSPSRRRGSRSRSRSRSPGRPPKSARRSASASHQADIKEARREVEVKLTPLILKPFGNSISRYNGEPEHIERNDAPHKNTQEKFSLSQESSYIATQYSLRPRREEVKLKEIDSKEEKYVAKELAVRTFEVTPIRAKDLEFGGVPGVFLIMFGLPVFLFLLLLMCKQKDPSLLNFPPPLPALYELWETRVFGVYLLWFLIQVLFYLLPIGKVVEGTPLIDGRRLKYRLNGFYAFILTSAVIGTSLFQGVEFHYVYSHFLQFALAATVFCVVLSVYLYMRSLKAPRNDLSPASSGNAVYDFFIGRELNPRIGTFDLKYFCELRPGLIGWVVINLVMLLAEMKIQDRAVPSLAMILVNSFQLLYVVDALWNEEALLTTMDIIHDGFGFMLAFGDLVWVPFIYSFQAFYLVSHPNEVSWPMASLIIVLKLCGYVIFRGANSQKNAFRKNPSDPKLAHLKTIHTSTGKNLLVSGWWGFVRHPNYLGDLIMALAWSLPCGFNHILPYFYIIYFTMLLVHREARDEYHCKKKYGVAWEKYCQRVPYRIFPYIY [LBR]	-0.47	-1.19	-0.228	53.1 °C	52.5 °C	-0.0634
MPTVEELYRNYGILADATEQVGQHKDAYQVILDGVKGGTKEKRLAAQFIPKFFKHFPELADSAINAQLDLCEDEDVSIRRQAIKELPQFATGENLPRVADILTQLLQTDDSAEFNLVNNALLSIFKMDAKGTLGGLFSQILQGEDIVRERAIKFLSTKLKTLPDEVLTKEVEELILTESKKVLEDVTGEEFVLFMKILSGLKSLQTVSGRQQLVELVAEQADLEQTFNPSDPDCVDRLLQCTRQAVPLFSKNVHSTRFVTYFCEQVLPNLGTLTTPVEGLDIQLEVLKLLAEMSSFCGDMEKLETNLRKLFDKLLEYMPLPPEEAENGENAGNEEPKLQFSYVECLLYSFHQLGRKLPDFLTAKLNAEKLKDFKIRLQYFARGLQVYIRQLRLALQGKTGEALKTEENKIKVVALKITNNINVLIKDLFHIPPSYKSTVTLSWKPVQKVEIGQKRASEDTTSGSPPKKSSAGPKRDARQIYNPPSGKYSSNLGNFNYEQRGAFRGSRGGRGWGTRGNRSRGRLY [API5]	1.42	1.11	0.323	53.7 °C	52.8 °C	0.0442
MPVGGLLPLFSSPAGGVLGGGLGGGGGRKGSGPAALRLTEKFVLLLVFSAFITLCFGAIFFLPDSSKLLSGVLFHSSPALQPAADHKPGPGARAEDAAEGRARRREEGAPGDPEAALEDNLARIRENHERALREAKETLQKLPEEIQRDILLEKKKVAQDQLRDKAPFRGLPPVDFVPPIGVESREPADAAIREKRAKIKEMMKHAWNNYKGYAWGLNELKPISKGGHSSSLFGNIKGATIVDALDTLFIMEMKHEFEEAKSWVEENLDFNVNAEISVFEVNIRFVGGLLSAYYLSGEEIFRKKAVELGVKLLPAFHTPSGIPWALLNMKSGIGRNWPWASGGSSILAEFGTLHLEFMHLSHLSGNPIFAEKVMNIRTVLNKLEKPQGLYPNYLNPSSGQWGQHHVSVGGLGDSFYEYLLKAWLMSDKTDLEAKKMYFDAVQAIETHLIRKSSSGLTYIAEWKGGLLEHKMGHLTCFAGGMFALGADAAPEGMAQHYLELGAEIARTCHESYNRTFMKLGPEAFRFDGGVEAIATRQNEKYYILRPEVMETYMYMWRLTHDPKYRKWAWEAVEALENHCRVNGGYSGLRDVYLLHESYDDVQQSFFLAETLKYLYLIFSDDDLLPLEHWIFNSEAHLLPILPKDKKEVEIREE [MAN1A1]	1.56	0.0924	0.133	55 °C	54.7 °C	-0.0318
MPVRGDRGFPPRRELSGWLRAPGMEELIWEQYTVTLQKDSKRGFGIAVSGGRDNPHFENGETSIVISDVLPGGPADGLLQENDRVVMVNGTPMEDVLHSFAVQQLRKSGKVAAIVVKRPRKVQVAALQASPPLDQDDRAFEVMDEFDGRSFRSGYSERSRLNSHGGRSRSWEDSPERGRPHERARSRERDLSRDRSRGRSLERGLDQDHARTRDRSRGRSLERGLDHDFGPSRDRDRDRSRGRSIDQDYERAYHRAYDPDYERAYSPEYRRGARHDARSRGPRSRSREHPHSRSPSPEPRGRPGPIGVLLMKSRANEEYGLRLGSQIFVKEMTRTGLATKDGNLHEGDIILKINGTVTENMSLTDARKLIEKSRGKLQLVVLRDSQQTLINIPSLNDSDSEIEDISEIESNRSFSPEERRHQYSDYDYHSSSEKLKERPSSREDTPSRLSRMGATPTPFKSTGDIAGTVVPETNKEPRYQEDPPAPQPKAAPRTFLRPSPEDEAIYGPNTKMVRFKKGDSVGLRLAGGNDVGIFVAGIQEGTSAEQEGLQEGDQILKVNTQDFRGLVREDAVLYLLEIPKGEMVTILAQSRADVYRDILACGRGDSFFIRSHFECEKETPQSLAFTRGEVFRVVDTLYDGKLGNWLAVRIGNELEKGLIPNKSRAEQMASVQNAQRDNAGDRADFWRMRGQRSGVKKNLRKSREDLTAVVSVSTKFPAYERVLLREAGFKRPVVLFGPIADIAMEKLANELPDWFQTAKTEPKDAGSEKSTGVVRLNTVRQIIEQDKHALLDVTPKAVDLLNYTQWFPIVIFFNPDSRQGVKTMRQRLNPTSNKSSRKLFDQANKLKKTCAHLFTATINLNSANDSWFGSLKDTIQHQQGEAVWVSEGKMEGMDDDPEDRMSYLTAMGADYLSCDSRLISDFEDTDGEGGAYTDNELDEPAEEPLVSSITRSSEPVQHEESIRKPSPEPRAQMRRAASSDQLRDNSPPPAFKPEPPKAKTQNKEESYDFSKSYEYKSNPSAVAGNETPGASTKGYPPPVAAKPTFGRSILKPSTPIPPQEGEEVGESSEEQDNAPKSVLGKVKIFEKMDHKARLQRMQELQEAQNARIEIAQKHPDIYAVPIKTHKPDPGTPQHTSSRPPEPQKAPSRPYQDTRGSYGSDAEEEEYRQQLSEHSKRGYYGQSARYRDTEL [TJP2]	1	2.91	-0.246	48.1 °C	49.2 °C	0.000921
MPYVDRQNRICGFLDIEENENSGKFLRRYFILDTREDSFVWYMDNPQNLPSGSSRVGAIKLTYISKVSDATKLRPKAEFCFVMNAGMRKYFLQANDQQDLVEWVNVLNKAIKITVPKQSDSQPNSDNLSRHGECGKKQVSYRTDIVGGVPIITPTQKEEVNECGESIDRNNLKRSQSHLPYFTPKPPQDSAVIKAGYCVKQGAVMKNWKRRYFQLDENTIGYFKSELEKEPLRVIPLKEVHKVQECKQSDIMMRDNLFEIVTTSRTFYVQADSPEEMHSWIKAVSGAIVAQRGPGRSASSEHPPGPSESKHAFRPTNAATATSHSTASRSNSLVSTFTMEKRGFYESLAKVKPGNFKVQTVSPREPASKVTEQALLRPQSKNGPQEKDCDLVDLDDASLPVSDV [PLEKHA1]	0.0968	0.182	0.0285	49.8 °C	49 °C	-0.0272
MQDPNADTEWNDILRKKGILPPKESLKELEEEAEEEQRILQQSVVKTYEDMTLEELEDHEDEFNEEDERAIEMYRRRRLAEWKATKLKNKFGEVLEISGKDYVQEVTKAGEGLWVILHLYKQGIPLCALINQHLSGLARKFPDVKFIKAISTTCIPNYPDRNLPTIFVYLEGDIKAQFIGPLVFGGMNLTRDELEWKLSESGAIMTDLEENPKKPIEDVLLSSVRRSVLMKRDSDSEGD [PDCL3]	-0.23	-0.106	0.617	54.2 °C	54.2 °C	-0.135
MQDTGSVVPLHWFGFGYAALVASGGIIGYVKAGSVPSLAAGLLFGSLAGLGAYQLSQDPRNVWVFLATSGTLAGIMGMRFYHSGKFMPAGLIAGASLLMVAKVGVSMFNRPH [TMEM14C]	-3.8e-18	-4.49e-20	0.356	–	54.3 °C	0.206
MQGARAPRDQGRSPGRMSALGRSSVILLTYVLAATELTCLFMQFSIVPYLSRKLGLDSIAFGYLQTTFGVLQLLGGPVFGRFADQRGARAALTLSFLAALALYLLLAAASSPALPGVYLLFASRLPGALMHTLPAAQMVITDLSAPEERPAALGRLGLCFGVGVILGSLLGGTLVSAYGIQCPAILAALATLLGAVLSFTCIPASTKGAKTDAQAPLPGGPRASVFDLKAIASLLRLPDVPRIFLVKVASNCPTGLFMVMFSIISMDFFQLEAAQAGYLMSFFGLLQMVTQGLVIGQLSSHFSEEVLLRASVLVFIVVGLAMAWMSSVFHFCLLVPGLVFSLCTLNVVTDSMLIKAVSTSDTGTMLGLCASVQPLLRTLGPTVGGLLYRSFGVPVFGHVQVAINTLVLLVLWRKPMPQRKDKVR [SLC22A18]	0.106	-0.446	-0.019	54.2 °C	–	-0.181
